Where “and” joins values, the source holds several entries; their conditions need not be identical. Identical values can stand only once.
Columns and labels:
[1] = molecular target: RaTG13 RBD displayed on S. cerevisiae (bat coronavirus RaTG13); assay: flow cytometry, S. cerevisiae displaying the RBD, AF633 anti-human IgG [RaTG13]
[2] = molecular target: LYRa11 RBD displayed on S. cerevisiae (bat SARS-related coronavirus LYRa11); assay: flow cytometry, S. cerevisiae displaying the RBD, AF633 anti-human IgG [LYRa11]
[3] = molecular target: WIV1 RBD displayed on S. cerevisiae (WIV1 (bat sarbecovirus)); assay: flow cytometry, S. cerevisiae displaying the RBD, AF633 anti-human IgG [WIV1]
[4] = molecular target: GD-Pangolin RBD displayed on S. cerevisiae (GD-Pangolin coronavirus)
[5] = molecular target: SARS-Cov-1 RBD displayed on S. cerevisiae
[6] = molecular target: WIV1-CoV RBD (WIV1-CoV (bat)); assay: SPR, His-tagged VHH on NTA chip, RBD as analyte
[7] = molecular target: WIV1-CoV RBD (WIV1-CoV (bat))
[8] = molecular target: Mouse IgG1 Fc fused SARS-CoV-2 RBD (Sino Biological) (SARS-CoV-2; mouse) (UniProt P0DTC2)

**Q.** What does the source list for S309 antibody?
**A.** EC50 (read off the curve) [1]: 0.8 µg/mL; EC50 (read off the curve) [2]: 0.8 µg/mL; EC50 (read off the curve) [3]: 0.7 µg/mL; EC50 (read off the curve) [4]: 1 µg/mL; EC50 (read off the curve) [5]: 0.5 µg/mL

**Q.** What does the source list for SARS VHH-72?
**A.** Kd [6]: 7.47 nM; koff [7]: 0.0026 s⁻¹; kon [7]: 349000 M⁻¹ s⁻¹

**Q.** How did the % Signal decrease over 8 min dissociation [8] turn out when “VHH72-W52aH-hIgG1 Fc (P. pastoris supernatant) (Fc fusion)” was run?
**A.** 49% and 51%

**Q.** What about the Kd [8] of the same substance?
**A.** 120 nM and 92.2 nM

— patent US20230227537A1
